B1: glycerol kinase Saci_2033 (enzyme, S. acidocaldarius DSM 639, UniProt Q4J7A3 1-497, looked up)
chain: MAEKYVIAIDEGTTSARAIVFDKELNILGIGQNEFTQYYPQPGYVEHSPEEIWQAQLLAINKALEKAKIDRNNILSIGITNQRETTVMWDTRTGKPIYNAIVWQDRRTAPITDYLKANYLRLIKDRTGLVPDPYFSASKIKWILDNIPNAREKAEKGEIKFGTIDTYLIWKLTNGKAHVTDYSNASRTMLFNIRKLEWDREILEILNIPEAILPDVKPSSEIYGYAEILNSSIPISGDAGDQQAALFGQIAFNQGDVKCTYGTGSFILLNTGSNLVSSNDLLTTIAWGVGKGITYALEGSIFITGAAVQWFRDGLRAIDVSDEIEPLAGSVPDNGGVYFVPAFTGLGAPYWDPYARGLIIGITRGTTKAHIARAILESMAYQTMDVLGIMQRDSGIKIDALKVDGGASKNDLLMQFQADILKMKVVRPKIMETTSMGVAMLAGLSVGYWNSMDELKQKWKIDQVFEPKMDDEYREKLYSGWKEAVRRALGWAKTIGG
notes: Glycerol kinase Saci_2033 of Sulfolobus acidocaldarius DSM 639, 497 amino acids, calculated mass 55.3 kDa; ORF amplified from genomic DNA; also called GK; GlpK
B2: glycerol-3-phosphate dehydrogenase Saci_2032 (His-tagged, recombinant) (enzyme, S. acidocaldarius DSM 639, UniProt Q4J7A2 1-431, looked up)
chain: MEIKTSVLVIGGGANGLFTALDLALRGIDVTLVERRDIGSGTSGRFHGLLHSGARYAVTDPESAKECIQENNIISKIAPHAIRDTGGLFLGITKEDLEFLDKFLSSLKKLGIEHKIVDNNQVLQEEPYVNKDLKIAIWVPDKVVYGYDLLSSIAVTGSLNKARIMTYNEVTEFIRDGNSIKGVKVFDKITNQMNLIKSDIIINTSGPWAFKIITMAGLEEIPILPTAGIMAVFGKKVNNAVLNRLRPPSDGDIIVPYQDTSILGTTATIIEDPDNFTISDEDVKMLIKEGSQLVPELSKTRVIRTYASVRPLMRTSEDGRKASRDFTILDHEREDGVSGLISIIGGKFTTSRLVGEKVGDLVSEKLGVRAKSKTKETKLISPSEIDFEKYLEKIGISKIFLKSVMERRGSLDEERYKTVLYLLLSLIARGR
notes: GlpA-like FAD-dependent glycerol-3-phosphate dehydrogenase Saci_2032 of Sulfolobus acidocaldarius DSM 639, calculated mass 47.6 kDa; ORF amplified from genomic DNA; also called G3PDH; GlpA-like; source: E. coli Rosetta (DE3), pET15b-saci_2032, purified (Nickel-IDA)
B3: glycerol kinase Saci_1117 (enzyme, S. acidocaldarius DSM 639, UniProt Q4J9R1 1-498, looked up)
chain: MSKYILAVDEGTTSARALVFDEDLNVISIAQTELTQYFPRPGYVEQNPEEIFEKQVSMIKKAVEKAKIEISQVSAIGIANQRETTIMWDSRSGRPVYNAVVWQDRRTSDITDWLKSNYLNLFKSKTGLIPDPYFSASKIKWILDNVPGVREKAERGEIKFGTVDTYLIWKLTNGKVHVTDYSNASRTMLFNIKKLEWDRDILEILEIPEAILPEVRSSSEVYGYAEPVGNIPISGDAGDQQAALFGQLGFSKGDVKCTYGTGSFILMNSGEEIYDSKDLLTTIAWKIGKDVKYALEGSIFTTGAAVQWVRDGLGLVSSSDEIESLASSVVDNGGVYFVPAFSGLGSPYWDPYARGLIIGISRGTSRGHIARAVLESIAYQVRDVIEVIKKDVGKEFVNVLKVDGGVSKNNLLMQFQADILGIRIVRPRVIETTSMGASMLAGLAVDYWSSLEELKSKWAVDREFIPSLQEDRRERLYKGWKEAVRRTIGWAREVETME
notes: Glycerol kinase Saci_1117 of Sulfolobus acidocaldarius DSM 639, 498 amino acids, calculated mass 55.6 kDa; ORF amplified from genomic DNA; The results call the protein C-terminally His-tagged; also called GK; GlpK homologue; source: S. acidocaldarius MW001, homologous overexpression (pSVAmalFX-saci_1117-SH10), purified (Strep-Tactin XT 4Flow column)
B4: glycerol-3-phosphate dehydrogenase Saci_1118 (His-tagged, recombinant) (enzyme, S. acidocaldarius DSM 639, UniProt Q4J9Q8 1-428, looked up)
chain: MKQNSSVIVIGGGATGLFTALDLSLRGINVTLVERGDIASGTSGKFHGLLHSGARYAVNDPESAKECKQENEVLSKIAPEFVRDTGGVFVGITEDDVNYSQRFLSALNSLGITNKVMDVEELIRREPFINKKSKIAIWVPDKVVYGYDLLATVALTASLNGAKILTYNEVKRVLREGNSVRRVEVKDNISGETKILNGDIIVNTAGPWAFRVIEMAGLGEIPLLPTAGIMVVMKEKLNSMVINRLRPPSDGDIIVPYGDSSIIGTTATIIPDPDNFEISDEDINMLIEEGAYMIPRLKEVKPERAYASVRPLIKNAEDGRGATRDFMIIDHEKVDSLDGLISVIGGKFTTSRLAGEKVSDMVSEKLGIREKSKTATIKLMSELDEKLLEKKRVPKVLVKMIRERKGSLDEDRYSTAMYILLSLLARGE
notes: GlpA-like FAD-dependent glycerol-3-phosphate dehydrogenase Saci_1118 of Sulfolobus acidocaldarius DSM 639, calculated mass 46.9 kDa; ORF amplified from genomic DNA; also called G3PDH; GlpA-like; source: E. coli Rosetta (DE3), pET15b-saci_1118, purified (Nickel-IDA)

Tests used:
[1] = target: T1, Saci_1118 (G3PDH) (Sulfolobus acidocaldarius, UniProt Q4J9Q8); assay: absorption spectrum of bound FAD, […] nm, after SDS denaturation; assay type: binding; conditions: two FAD per homodimer; non-covalent per family; reduced by G3P at 70 °C
T1 construct: full length, N-terminal His tag (pET15b), E. coli Rosetta (DE3); homodimer with 2 FAD; without CoxG

[2] = target: T2, Saci_2032 (G3PDH) (Sulfolobus acidocaldarius, UniProt Q4J7A2); assay: as above; assay type: binding; conditions: two FAD per homodimer; non-covalent per family; reduced by G3P at 70 °C
T2 construct: full length, N-terminal His tag (pET15b), E. coli Rosetta (DE3); homodimer with 2 FAD; without CoxG

[3] = target: the molecule itself; assay: SEC; Superose 6 Increase 10/300 GL, 50 mM TRIS-HCl pH 7.5, 250 mM NaCl; GKs 50 µg in 200 µL, G3PDHs 19 mg Saci_2032 or 6 mg Saci_1118 in 500 µL; calibrated with LMW and HMW gel filtration kits; native mass compared with subunit mass
[4] = substrate: Nc1ncnc2c1ncn2[C@@H]1O[C@H](COP(=O)(O)OP(=O)(O)OP(=O)(O)O)[C@@H](O)[C@H]1O; assay: purified protein; assay type: biochemical, Sulfolobus acidocaldarius; conditions: 2 mM glycerol
[5] = substrate: OCC(O)CO; assay: purified protein; assay type: biochemical, Sulfolobus acidocaldarius
[6] = substrate: O=P(O)(O)OC[C@H](O)CO; assay: purified protein; assay type: biochemical, Sulfolobus acidocaldarius; conditions: 0.06 mM DCPIP as electron acceptor, 50 mM HEPES-KOH pH 6.5, 100 mM KCl, 70 °C
[7] = substrate: COC1=C(OC)C(=O)C(CC=C(C)C)=C(C)C1=O; assay: purified protein; assay type: biochemical, Sulfolobus acidocaldarius; conditions: 0.4 mM G3P, no DCPIP, 50 mM HEPES-KOH pH 6.5, 100 mM KCl, 70 °C
[8] = 5 mM ATP, 5 mM MgCl2, 0.1 M MOPS-KOH pH 6.5, 50 °C
[9] = 1 mM ATP, 1 mM MgCl2, 0.1 M TRIS-HCl pH 7, 50 °C

| Molecule | stoichiometry N [3] | Km [6] | Vmax [6] | kcat/Km [6] | Km [7] | Vmax [7] | kcat/Km [7] | other results |
| --- | --- | --- | --- | --- | --- | --- | --- | --- |
| Cc1cc2nc3c(=O)[nH]c(=O)nc-3n(C[C@H](O)[C@H](O)[C@H](O)COP(=O)(O)OP(=O)(O)OC[C@H]3O[C@@H](n4cnc5c(N)ncnc54)[C@H](O)[C@@H]3O)c2cc1C [FAD] | – | – | – | – | – | – | – | absorption spectrum of bound FAD, 450 nm, after SDS denaturation [1]: a FAD content of two per homodimer was determined for both enzymes; absorption spectrum of bound FAD, 450 nm, after SDS denaturation [2]: a FAD content of two per homodimer was determined for both enzymes |
| B1 | 2 | – | – | – | – | – | – | Km ([4]; 0.1 M MOPS-KOH pH 6.5, 50 °C): 0.174 ± 0.019 mM; Vmax ([4]; 0.1 M MOPS-KOH pH 6.5, 50 °C): 91 µmol/min/mg; kcat/Km ([4]; 0.1 M MOPS-KOH pH 6.5, 50 °C): 485000 ± 57100 M⁻¹ s⁻¹; Km [5, 8]: 0.024 ± 0.004 mM; Vmax [5, 8]: 88.2 µmol/min/mg; kcat/Km [5, 8]: 1.31e+07 ± 2.2e+06 M⁻¹ s⁻¹ |
| B2 | 2 | 0.055 ± 0.009 mM | 44.5 µmol/min/mg | 642000 ± 111000 M⁻¹ s⁻¹ | 0.179 ± 0.075 mM | 21.1 µmol/min/mg | 128000 ± 58900 M⁻¹ s⁻¹ | – |
| B3 | 2 | – | – | – | – | – | – | Km ([4]; 0.1 M TRIS-HCl pH 7, 50 °C): 0.205 ± 0.024 mM; Vmax ([4]; 0.1 M TRIS-HCl pH 7, 50 °C): 50.8 µmol/min/mg; kcat/Km ([4]; 0.1 M TRIS-HCl pH 7, 50 °C): 229000 ± 28400 M⁻¹ s⁻¹; Km [5, 9]: 0.024 ± 0.001 mM; Vmax [5, 9]: 45.7 µmol/min/mg; kcat/Km [5, 9]: 6.4e+06 ± 507000 M⁻¹ s⁻¹ |
| B4 | 2 | 0.019 ± 0.003 mM | 19.6 µmol/min/mg | 808000 ± 131000 M⁻¹ s⁻¹ | 0.086 ± 0.019 mM | 18.7 µmol/min/mg | 170000 ± 39700 M⁻¹ s⁻¹ | – |

— PMC11962113, “An unusual glycerol-3-phosphate dehydrogenase in Sulfolobus acidocaldarius elucidates the diversity of glycerol metabolism across Archaea” (Communications Biology, 2025)
